According to patent publication US20250333501A1 (University of California, published 2025):

T1: CLDN6 endogenously expressed by human cancer cell lines (ARK2, OVCA429) (human, UniProt P56747 1-220)
T1 construct: Untagged endogenous protein; also called Endogenous CLDN6+
T1 sequence: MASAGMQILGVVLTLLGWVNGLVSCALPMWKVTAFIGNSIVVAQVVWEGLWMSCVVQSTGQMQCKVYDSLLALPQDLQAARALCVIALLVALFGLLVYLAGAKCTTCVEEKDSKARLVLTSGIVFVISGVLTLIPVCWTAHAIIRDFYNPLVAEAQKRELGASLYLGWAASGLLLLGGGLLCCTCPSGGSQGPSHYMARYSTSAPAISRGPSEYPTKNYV

T2: human CLDN6 fused to GFP, expressed on engineered HEK293T cells (HEK293T-CLDN6-mGFP) (human, UniProt P56747 1-220)
T2 construct: It calls residues 1-21 a signal peptide; also called Claudin-6; HEK293T-CLDN6-mGFP Artificial CLDN6+; not shown: mGFP tag
T2 sequence: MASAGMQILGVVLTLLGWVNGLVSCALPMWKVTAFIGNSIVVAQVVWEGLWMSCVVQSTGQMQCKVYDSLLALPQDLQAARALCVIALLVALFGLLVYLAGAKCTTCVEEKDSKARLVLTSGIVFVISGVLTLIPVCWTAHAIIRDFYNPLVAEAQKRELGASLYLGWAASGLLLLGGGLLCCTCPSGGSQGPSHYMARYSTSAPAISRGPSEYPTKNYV

B1: AB2 (antibody, V domains shown)
VH: EVKLEESGGGLVQPGGSMKLSCVASGFTFSDYWMNWVRQSPEKGLEWVAQIRLKSDNYATHYAESVKGRFTISRDDSKRSVYLQMNNLRAEDTGTYYCNDGPPSGCWGQGTTLIVSS
VL: DIQMTQSPASLSASVGETVTITCRISENIYSYLAWYQQKQGKSPQLLVYNAKILVEGVPSRFSGSGSGTQFSLKINSLQPEDFGNYYCQHHYTVPWTFGGGTKLEIK
notes: Labelled with Alexa Fluor 647 NHS ester for FACS
B2: AB4 (antibody, V domains shown)
VH: QVQLQQSGAELARPGASVKMSCKASGYTFTSYTMHWIKQRPGQGQEWIGYINPSSTYTHYIKKFKDKATLTADKSSSTAYMQLRSLTSEDSAVYYCSRGELGGFAYWGQGTLVTVSA
VL: DVVMTQTPLSLPVSLGDQASISCRSSQSLVHSDGNTYLNWYLQKPGQSPKLLIYKVSNRFSGVPDRFSGSGSGTDFTLKIRRVEAEDLGVYFCSQSTHVPYTFGGGTKLEIK
notes: Labelled with Alexa Fluor 647 for FACS and with Texas Red-X in the internalization assay
B3: AB10 (antibody, V domains shown)
VH: QIQLVQSGPALKKPGETVKISCKASGYTFTDYSMHWIKQAPGKGLKWMGWISTETGEPTYADGFKGRFDFSLETSADTAYLSINNLTNEDTATYFCTRGLWSSFAYWGQGTLVTVSA
VL: DVVMTQTPLSLPVSLGDQASISCRASQSLVHSNGNTYLHWFLQKPGQSPKLLIYKVSNRFSGVPDRFSGSGSRTDFTLKISRVEAEDLGVYFCSQITHVPYTFGGGTKLEIK
notes: as for B1
B4: AB8 (antibody, V domains shown)
VH: QVQLQQSGAELARPGASVKMSCKASGYTFTTYTMHWLKQRPGQGLEWIGYINPRSGYSNYNQKFKDKATLTADKSSNTAYMQLNTLTSEDSKVYYCSRGELGGFAYWGQGTLVTVSA
VL: DVVMTQTPLSLPVSLGDQASISCRSSQSLVHSDGNTYLYWYLQKPGQSPKLLIYKVSNRFSGVPDRFSGSGSGTDFTLKISRVEAEDLGVYFCSQSTHVPYTFGGGTKLEIK
notes: as for B1
B5: AB7 (antibody, V domains shown)
VH: EVQLQQSGPELVKPGASMKISCKASGYSFTGYTMNWVKQSHGKNLEWIGLINPYNGGTNYNQKFKGKATLTVDKSSSTAYMELLSLTSEDSAVYYCARGVYDYDGFTYWGQGTLVTVSA
VL: QIVLTQSPAIMSASLGDRVTMTCTASSSVSSSYLHWYQQKPGSSPKLWIYSTSNLASGVPARFSGSGSGTSYSLTISSMEAEDAATYYCHQYHRSPPTFGSGTKLEIK
notes: as for B1
B6: AB5 (antibody, V domains shown)
VH: EVQLQQSGPELVKPGASVKMSCKASGYIFTHYIMHWVKQKPGQGLEWIGCINPYNDGTKYNEKFKGKATLTSDKSSSTAYMELSSLTSEDSAVYYCARYYGYPYYSMDYWGQGTSVTVSS
VL: DVLMTQTPLSLPVSLGDQPSISCRSSQSIVHSNGNTYLDWYLQKPGQSPKLLIYKVSNRFSGVPDRFSGSGSGTDFTLKISRVEAEDLGVYYCFQGSHVPFTFGSGTRLEIK
notes: as for B1
B7: AB9 (antibody, V domains shown)
VH: EVQLQQSGPELVKPGASVKMSCKASGYRFTDYNMHWVKQSHGKSLEWIGYINPNNGGTNYNQNFKGKATLTVNKSSSTAYMELRSLTSEDSAAYYCARDYLYFFDCWGQGTTLTVSS
VL: DIQMTQSPASQSASLGESVTITCLASQTIGTWLAWYQQKPGKSPQLLIYAAASLADGVPSRFSGSGSGTRFSFKISSLQAEDFVSYYCQQLYSIPRTFGGGTKLEIK
notes: as for B1
B8: AB6 (antibody, V domains shown)
VH: DVQLQESGPGLVKSSQSLSLTCSVTGYSITSGYYWKWIRQFPGNKLEWMGYISYDGGINYNPSLKNRISITRDTSKNQFFLKLNSVTTEDTAKYYCARFGKGAMDYWGQGTSVTVSS
VL: AIVMFQSPSSLVVSAGEKVTMSCKSSQSLLNSRTRKNYLAWYQQKPGQSPKLLIYWASTRESGVPDRFTGSGSGTDFTLTISSVQAEDLAVYYCKQSYYLYTFGGGTKLEIK
notes: as for B1

Assays:
[1] = molecular target: T1, CLDN6 endogenously expressed by human …; test: FACS, AF647-labelled mAb, ARK2 cells
Experimental: (§1) Antibodies were purified and cell surface binding of the antibodies to CLDN6 and the antibody IC₅₀ were determined by FACS in which CLDN6 antibodies were directly conjugated with Alexa Fluor® 647 NHS Ester (Succinimidyl Ester), Cat #A20106 (ThermoFisher Scientific) following the manufacturer's protocol. CLDN6 antibodies were tested from 0.32 nM to 1000 nM (serial dilution 1:5, 6 points) in a 50 μl volume with 150,000 cells system.
(§2) CLDN6-expressing cells were used in FACS assays to determine the CLDN6 antibody's ability to bind to CLDN6 on the surface of cells and to cross-react with other CLDN family members. HEK293 T cells engineered to express human CLDN6 fused to GFP, mouse CLDN6 fused to GFP, CLDN9-GFP, CLDN4-GFP, or CLDN3-GFP, or GFP alone (without CLDN6) were used as artificial models of CLDN6 expression. ARK2, OVCA429, LS513 and MCF7 cells were used as endogenous models of CLDN6 expression, as well as models for CLDN3/4 expression.
(§3) For each type of cell tested and for each mAb, cells were detached from the surface of the culture flasks by EDTA (instead of trypsin) in order to protect the cell surface proteins. The detached cells were then incubated with Alexa Fluor®-labeled CLDN6 mAbs for 30 min in the dark on ice at a pre-determined concentration. The CLDN6 mAbs were directly labeled with Alexa Fluor® 647 NHS Ester (Succinimidyl Ester). After washing, the cells were read by a BD Accuri™ Flow Cytometer C6 to detect antibody-antigen protein binding in channel FL4H. Each antibody was tested at varied concentrations to establish a dose-fluorescence curve. The EC50/IC50 of the antibodies (the concentration of the antibody at which half the max value were calculated based on the values of FL4H (gated in viable singlet cells) using the Very Simple IC50 Tool kit available online which allows biological dose-response data to be plotted and fitted to curve types to give the EC50/IC50. The max value was the lowest concentration of the antibody at which fluorescence maxes out. The antibodies were also screened for their ability to cross-react with other CLDN proteins such as CLDN9, CLDN3, and CLDN4. These values were used to determine each antibody's relative affinity among the set of antibodies tested. Cross-reactivity data were obtained using a similar methodology, but with cells having a different expression profile for CLDN6, CLDN3, CLDN4 and CLDN9.

[2] = molecular target: T1, CLDN6 endogenously expressed by human …; test: FACS, AF647-labelled mAb, OVCA429 cells
Experimental: as §1, §2, §3

[3] = molecular target: T2, human CLDN6 fused to GFP, expressed on …; test: FACS, AF647-labelled mAb, HEK293T-CLDN6-mGFP cells
Experimental: as §1, §2, §3

Binder | EC50 [1] | EC50 [2] | EC50 [3]
B1 | 1360 nM | 912 nM | 182 nM
B2 | 48 nM | 168 nM | 17 nM
B3 | 2140 nM | 2470 nM | 2760 nM
B4 | 1140 nM | 1090 nM | 1920 nM
B5 | 353 nM | 531 nM | 579 nM
B6 | 8 nM | 5 nM | 10 nM
B7 | 1140 nM | 1160 nM | 2670 nM
B8 | 765 nM | 394 nM | 1430 nM
